The data set is described as follows: protein stability index of a GFP-peptide fusion (GPS, HEK-293T) (PSI 1-6); higher = more stable.
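Further: lentivirally expressed fusions sorted by FACS into six bins by GFP to DsRed ratio, PSI derived from sequencing read proportions per bin multiplied by bin number.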

B1: CDC14A WT (peptide)
chain: LNLAMVYRYCCKLNKKLKSYSLSR
Turning to B1, under “parent: IOH46617_10, c terminus: a fixed tail appended”, the protein stability index was 2.15.

B2: MYL5 WT (peptide)
chain: DVAGNLDYKALSYVITHGEEKEE
Regarding B2, the protein stability index (parent: IOH44370_26, c terminus: native) was 2.21.

B3: NEK8 WT (peptide)
chain: YTFGSNQHGQLGTNTRRGSRAPCK
Take B3: for the setting “parent: IOH45357_98, c terminus: a fixed tail appended”, the protein stability index came to 3.79.

B4: SLC19A2 WT (peptide)
chain: FASLRPSEPFLTPYLLGPDKNLTE
Take B4: where the note is “parent: IOH52104_8, c terminus: a fixed tail appended”, the protein stability index amounted to 2.

B5: USP39 WT (peptide)
chain: TLSEAYIQIWKRRDNDETNQQGA
For B5, the protein stability index (parent: IOH45672_93, c terminus: native) came to 2.22.

B6: SLC19A2 WT (peptide)
chain: IYPVWTYSYLVLLFPVFLATDYLR
As for B6, the protein stability index (parent: IOH52104_13, c terminus: a fixed tail appended) worked out at 2.89.

B7: TRIM63 WT (peptide)
chain: FRCPTCRHEVIMDRHGVYGLQRNL
B7: the protein stability index (parent: IOH45956_13, c terminus: a fixed tail appended) is 1.95.

B8: ETS1 WT (peptide)
chain: YVRDRADLNKDKPVIPAAALAGYT
Turning to B8, the protein stability index (parent: IOH46473_52, c terminus: a fixed tail appended) stood at 2.15.

B9: OR10K2 WT (peptide)
chain: SLARLQQLLFVIFLLLYLFTLGTN
In the case of B9, under “parent: IOH46300_4, c terminus: a fixed tail appended”, the protein stability index amounted to 2.15.

B10: ATE1 WT (peptide)
chain: YGSFHQQYWLDGKIIAVGVIDILP
On to B10, for which the protein stability index (parent: IOH45551_57, c terminus: a fixed tail appended) came to 2.33.

B11: KLHL14 WT (peptide)
chain: YVIGGRNETGYLSSVECYNLETNE
On to B11, for which the protein stability index (parent: IOH52486_72, c terminus: a fixed tail appended) amounted to 1.96.

B12: CDC14A WT (peptide)
chain: LWVQGDIFRSKLKNRPSSEGSINK
With B12, where the note is “parent: IOH46617_56, c terminus: a fixed tail appended”, the protein stability index stood at 2.28.

B13: SPOPL WT (peptide)
chain: PDDKLTLFCEVSVVQDSVNISGHT
Turning to B13, under “parent: IOH45687_26, c terminus: a fixed tail appended”, the protein stability index turned out to be 2.06.

B14: FUT8 WT (peptide)
chain: NWRYATGGWETVFRPVSETCTDRS
Turning to B14, under “parent: IOH44218_42, c terminus: a fixed tail appended”, the protein stability index is 1.78.

B15: TOR1AIP2 WT (peptide)
chain: HHVADAYTSSQKVSPIQIDGAGRT
In the case of B15, the protein stability index (parent: IOH51997_53, c terminus: a fixed tail appended) worked out at 3.46.

B16: ATE1 WT (peptide)
chain: DYFPSEDFYRCGYCKNESGSRSNG
B16: the protein stability index (parent: IOH45551_3, c terminus: a fixed tail appended) was 2.1.

B17: KRT13 WT (peptide)
chain: TPGIDLTRVLAEMREQYEAMAERN
In the case of B17, for the setting “parent: IOH51951_45, c terminus: a fixed tail appended”, the protein stability index amounted to 3.68.

B18: TOR1AIP2 WT (peptide)
chain: DGAGRTWQDSDTVKLLVDLELSYG
Regarding B18, the protein stability index (parent: IOH51997_56, c terminus: a fixed tail appended) is 1.82.

B19: TOR1AIP2 WT (peptide)
chain: YTSSQKVSPIQIDGAGRTWQDSDT
For B19, under “parent: IOH51997_54, c terminus: a fixed tail appended”, the protein stability index was 3.33.

B20: SPOPL WT (peptide)
chain: YTGRAPNLDKMADNLLAAADKYAL
As for B20, the protein stability index (parent: IOH45687_44, c terminus: a fixed tail appended) was found to be 2.12.

B21: TRIM63 WT (peptide)
chain: QEKKLSFIEALIQQYQEQLDKSTK
Turning to B21, the protein stability index (parent: IOH45956_40, c terminus: a fixed tail appended) was 2.57.

B22: NEK8 WT (peptide)
chain: VVGTPCYISPELCEGKPYNQKSDI
Consider B22, for which the protein stability index (parent: IOH45357_28, c terminus: a fixed tail appended) worked out at 2.69.

B23: KRT13 WT (peptide)
chain: YGGGLGGGFGGGFAGGFVDFGACD
Turning to B23, for the setting “parent: IOH51951_13, c terminus: a fixed tail appended”, the protein stability index was determined as 1.83.

B24: ETS1 WT (peptide)
chain: FSEPSFITESYQTLHPISSEELLS
Take B24: under “parent: IOH46473_30, c terminus: a fixed tail appended”, the protein stability index amounted to 1.94.

B25: USP39 WT (peptide)
chain: FQGSMRIFTKKLPHPDLPAEEKEQ
Regarding B25, the protein stability index (parent: IOH45672_59, c terminus: a fixed tail appended) came out at 2.02.

B26: SNURF WT (peptide)
chain: QVPVVDFQAELRQAFLAETPRGG
In the case of B26, the protein stability index (parent: IOH45840_9, c terminus: native) was 2.99.

B27: FUT8 WT (peptide)
chain: YAHQPRTADEIPMEPGDIIGVAGN
In the case of B27, where the note is “parent: IOH44218_86, c terminus: a fixed tail appended”, the protein stability index is 4.04.

B28: MYL5 WT (peptide)
chain: FQFASIDVAGNLDYKALSYVITHG
Turning to B28, the protein stability index (parent: IOH44370_25, c terminus: a fixed tail appended) was determined as 2.42.

B29: USP39 WT (peptide)
chain: FVEKNPTIVNFPITNVDLREYLSE
For the protein B29, the protein stability index (parent: IOH45672_78, c terminus: a fixed tail appended) was 1.94.

B30: TOR1AIP2 WT (peptide)
chain: YKYCDHENAAFKDVALVLTVLLEE
As to B30, the protein stability index (parent: IOH51997_64, c terminus: a fixed tail appended) is 2.27.

B31: CAMK2B WT (peptide)
chain: YQQIKAGAYDFPSPEWDTVTPEAK
With B31, where the note is “parent: IOH45432_38, c terminus: a fixed tail appended”, the protein stability index worked out at 3.58.

B32: TRIM63 WT (peptide)
chain: ANPYWTSRGSSVSMSGGRFRCPTC
Take B32: the protein stability index (parent: IOH45956_10, c terminus: a fixed tail appended) was determined as 1.99.

B33: KRT13 WT (peptide)
chain: KTIEELRDKILTATIENNRVILEI
Take B33: where the note is “parent: IOH51951_27, c terminus: a fixed tail appended”, the protein stability index stood at 2.97.

B34: CDC14A WT (peptide)
chain: GPHPKSKIENGYPLHAPEAYFPYF
As to B34, the protein stability index (parent: IOH46617_33, c terminus: a fixed tail appended) was found to be 2.25.

B35: SEPHS2 WT (peptide)
chain: KASGRFGLLQGTSAETSGGLLICL
Regarding B35, the protein stability index (parent: IOH46138_60, c terminus: a fixed tail appended) amounted to 2.7.

B36: KCNK9 WT (peptide)
chain: DVPDLQSVCSCTCYRSQDYGGRSV
Take B36: where the note is “parent: IOH45737_49, c terminus: a fixed tail appended”, the protein stability index amounted to 1.8.

B37: POLD4 WT (peptide)
chain: ITDSYPVVKRREGPAGHSKGELAP
As to B37, under “parent: IOH45937_2, c terminus: a fixed tail appended”, the protein stability index was determined as 2.96.

B38: FUT8 WT (peptide)
chain: YPSYKVREKIETVKYPTYPEAEK
In the case of B38, the protein stability index (parent: IOH44218_94, c terminus: native) is 4.2.

B39: SPOPL WT (peptide)
chain: AKREETKAMESQRAYRFVQGKDWG
On to B39, for which, under “parent: IOH45687_19, c terminus: a fixed tail appended”, the protein stability index is 2.71.

B40: ZBED2 WT (peptide)
chain: FHLAPARAGHHPNQYATCRLCGRQ
With B40, the protein stability index (parent: IOH45853_11, c terminus: a fixed tail appended) was determined as 1.84.

B41: KCNK9 WT (peptide)
chain: CFITLTTIGFGDYVALQTKGALQK
For the protein B41, the protein stability index (parent: IOH45737_33, c terminus: a fixed tail appended) worked out at 2.94.

B42: SLC19A2 WT (peptide)
chain: FHHIPSTCQRVNGIKVQNGGIVTD
Consider B42, for which the protein stability index (parent: IOH52104_37, c terminus: a fixed tail appended) worked out at 1.8.

B43: TOR1AIP2 WT (peptide)
chain: AGQEGEDTLRRRLLAPEAGSHPQQ
As for B43, under “parent: IOH51997_29, c terminus: a fixed tail appended”, the protein stability index turned out to be 2.33.

B44: ZBED2 WT (peptide)
chain: RAGHHPNQYATCRLCGRQVSRGPG
On to B44, for which, for the setting “parent: IOH45853_12, c terminus: a fixed tail appended”, the protein stability index turned out to be 2.02.

B45: RAD54B WT (peptide)
chain: YVQEKRDGLKRRQQLEEELLRAKI
As for B45, the protein stability index (parent: IOH45968_20, c terminus: a fixed tail appended) was 1.89.

B46: TOR1AIP2 WT (peptide)
chain: SPGHSSAGQEGEDTLRRRLLAPEA
Turning to B46, the protein stability index (parent: IOH51997_28, c terminus: a fixed tail appended) is 4.18.

B47: NEK8 WT (peptide)
chain: VTIKHVACGDFFTACLTDRGIIMT
Consider B47, for which the protein stability index (parent: IOH45357_66, c terminus: a fixed tail appended) turned out to be 2.6.

B48: KRT13 WT (peptide)
chain: TSSASVTTTSNASGRRTSDVRRP
In the case of B48, under “parent: IOH51951_76, c terminus: native”, the protein stability index was 2.45.

B49: KLHL14 WT (peptide)
chain: NETGYLSSVECYNLETNEWRYVSS
Take B49: for the setting “parent: IOH52486_73, c terminus: a fixed tail appended”, the protein stability index stood at 2.24.

B50: PRKX WT (peptide)
chain: KLLVVDRTRRLGNMKNGANDVKHH
As for B50, under “parent: IOH45425_47, c terminus: a fixed tail appended”, the protein stability index is 3.15.

B51: TRIM63 WT (peptide)
chain: QRITQEQEKKLSFIEALIQQYQEQ
B51: the protein stability index (parent: IOH45956_39, c terminus: a fixed tail appended) was determined as 2.31.

B52: KLHL20 WT (peptide)
chain: YQDMIYAVGGRDDTTELSSAERYN
With B52, for the setting “parent: IOH45628_85, c terminus: a fixed tail appended”, the protein stability index worked out at 2.4.

B53: RAB40A WT (peptide)
chain: NWLGRPSKVLSLQDLCCRTIVSCT
For the protein B53, the protein stability index (parent: IOH45721_31, c terminus: a fixed tail appended) was determined as 2.45.

The values are drawn from the supplement of paper PMC10567573.
